Data from article PMC10002482, “BMPER Improves Vascular Remodeling and the Contractile Vascular SMC Phenotype” (International Journal of Molecular Sciences, 2023).
Values belong to the binder of their own block, whether it stands above or below them.

Key:
[1] = biological target: T1, recombinant BMPER (BMP endothelial cell precursor-derived regulator) ( (recombinant human and …, UniProt Q8N8U9 40-685)); experiment: SPR; BIAcore 2000; BMP-4 immobilised at 430 RU on CM5 by amine coupling; 0-320 nM BMPER or IGFBP-4 injected in HBS-EP; 1:1 model with mass transfer; apparent KD = kd/ka; settings: both partners purified
T1 construct: BMPER, recombinant protein used as analyte in SPR; whether this holds for the SPR proteins is surmised; Secreted glycoprotein; also called soluble BMPER; source: recombinant
T1 sequence (Q8N8U9 40-685): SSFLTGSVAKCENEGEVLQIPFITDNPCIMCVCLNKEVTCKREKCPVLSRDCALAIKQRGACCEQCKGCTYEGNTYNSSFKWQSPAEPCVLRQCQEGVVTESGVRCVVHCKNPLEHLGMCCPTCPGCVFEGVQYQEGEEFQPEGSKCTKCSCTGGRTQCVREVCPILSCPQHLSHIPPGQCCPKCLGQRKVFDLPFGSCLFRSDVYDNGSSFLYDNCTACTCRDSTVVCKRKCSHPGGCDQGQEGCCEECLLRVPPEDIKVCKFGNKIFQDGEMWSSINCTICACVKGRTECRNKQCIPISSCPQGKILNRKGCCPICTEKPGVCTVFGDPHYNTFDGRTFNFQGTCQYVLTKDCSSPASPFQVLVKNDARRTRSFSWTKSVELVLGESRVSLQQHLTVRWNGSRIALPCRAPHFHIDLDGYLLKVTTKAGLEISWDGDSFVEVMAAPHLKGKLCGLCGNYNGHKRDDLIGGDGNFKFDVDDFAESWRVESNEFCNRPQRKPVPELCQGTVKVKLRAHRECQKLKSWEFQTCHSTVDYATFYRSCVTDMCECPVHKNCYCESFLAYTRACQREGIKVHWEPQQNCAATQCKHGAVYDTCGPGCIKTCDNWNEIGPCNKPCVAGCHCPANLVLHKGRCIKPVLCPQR

[2] = biological target: T1, recombinant BMPER (BMP endothelial cell …); experiment: SPR; BIAcore 2000; IGFBP-4 immobilised at 360 RU on CM5 by amine coupling; 0-320 nM BMPER injected in HBS-EP (0.01 M HEPES pH 7.4, 0.15 M NaCl, 3 mM EDTA, 0.005% P20), 180 s association, 180 s dissociation; 1:1 model with mass transfer; apparent KD = kd/ka; settings: both partners purified

- Kd [1]: 1.5 nM
B1: BMP-4 (bone morphogenetic protein 4) (ligand, UniProt P12644 293-408, looked up)
chain: SPKHHSQRARKKNKNCRRHSLYVDFSDVGWNDWIVAPPGYQAFYCHGDCPFPLADHLNSTNHAIVQTLVNSVNSSIPKACCVPTELSAISMLYLDEYDKVVLKNYQEMVVEGCGCR
notes: BMP4, immobilised on a CM5 chip in SPR

- Kd [2]: 6.04 ± 1.86 nM
B2: recombinant IGFBP-4 (insulin-like growth factor-binding protein 4) (natural protein, UniProt P22692 22-258, looked up)
chain: DEAIHCPPCSEEKLARCRPPVGCEELVREPGCGCCATCALGLGMPCGVYTPRCGSGLRCYPPRGVEKPLHTLMHGQGVCMELAEIEAIQESLQPSDKDEGDHPNNSFSPCSAHDRRCLQKHFAKIRDRSTSGGKMKVNGAPREDARPVPQGSCQSELHRALERLAASQSRTHEDLYIIPIPNCDRNGNFHPKQCHPALDGQRGKCWCVDRKTGVKLPGGLEPKGELDCHQLADSFRE
notes: IGFBP4, recombinant protein immobilised or injected in SPR; whether this holds for the SPR proteins is surmised; source: recombinant
